± gives the standard deviation.
Test: collision cross section of modified peptide (TIMS, N2, iRT-aligned); higher = larger / more extended gas-phase ion
Summary of the method: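 Values are averages of 1–3 technical replicates of the most abundant feature for each charge state. Collision cross section was obtained from the Mason-Schamp equation after 1/K0 calibration with three reference ions and run-wise alignment to the median iRT peptide deviation. Synthetic peptide pools (iRT standard spiked 1:40) were separated on a 120-min nanoflow C18 gradient at 60 °C, analysed on a timsTOF Pro/HT (dda-PASEF, nitrogen, ~2.4 mbar) and identified with MaxQuant.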

[1] = charge state: 2, modification: Glutarylation
[2] = charge state: 3, modification: Glutarylation
[3] = charge state: 2, modification: Acetyl (K)
[4] = charge state: 2, modification: Butyryl
[5] = charge state: 3, modification: Butyryl
[6] = charge state: 2, modification: Propionyl
[7] = charge state: 2, modification: Formyl
[8] = charge state: 3, modification: Formyl
[9] = charge state: 2, modification: Crotonyl
[10] = charge state: 3, modification: Acetyl (K)
[11] = charge state: 2, modification: Trimethyl (K)
[12] = charge state: 3, modification: Trimethyl (K)
[13] = charge state: 2, modification: GlyGly (K)
[14] = charge state: 3, modification: GlyGly (K)
[15] = charge state: 2, modification: Dimethyl (K)
[16] = charge state: 3, modification: Dimethyl (K)
[17] = charge state: 2, modification: Phospho (Y)
[18] = charge state: 2, modification: Succinyl
[19] = charge state: 2, modification: hydroxyisobutyryl
[20] = charge state: 2, modification: Citrullination (R)
[21] = charge state: 3, modification: Citrullination (R)
[22] = charge state: 3, modification: Propionyl
[23] = charge state: 2, modification: Methyl (K)
[24] = charge state: 3, modification: Methyl (K)
[25] = charge state: 3, modification: Succinyl
[26] = charge state: 3, modification: hydroxyisobutyryl
[27] = charge state: 2, modification: Nitro (Y)

VGVEVPDVNIEGPEGKLK [_VGVEVPDVNIEGPEGK(Gluratylation)LK_]
collision cross section [1]: 461.98 ± 1.5 Å² | collision cross section [2]: 531 ± 29 Å²

IISSIEQKEENK [_IISSIEQK(Acetyl (K))EENK_]
collision cross section [3]: 401.35 ± 0.23 Å²

LQDVSGQLSSSKK [_LQDVSGQLSSSK(Butyryl)K_]
collision cross section [4]: 401.39 ± 0.74 Å² | collision cross section [5]: 476.47 ± 3.2 Å²

AGPNASIISLKSDK [_AGPNASIISLK(Propionyl)SDK_]
collision cross section [6]: 409.61 ± 0.38 Å²

SLGEPAAGEGSAKR [_SLGEPAAGEGSAK(Formyl)R_]
collision cross section [7]: 375.91 ± 0.55 Å² | collision cross section [8]: 481.8 Å²

AGPNASIISLKSDK [_AGPNASIISLK(Crotonyl)SDK_]
collision cross section [9]: 412.97 ± 0.55 Å²

HELQANCYEEVKDR [_HELQANCYEEVK(Gluratylation)DR_]
collision cross section [2]: 487.76 ± 1.7 Å²

VETTVTSLKTK [_VETTVTSLK(Acetyl (K))TK_]
collision cross section [3]: 378.83 ± 0.45 Å² | collision cross section [10]: 444.47 Å²

LDHLAEKFR [_LDHLAEK(Biotin)FR_]
collision cross section (charge state: 3, modification: Biotin): 452.58 Å²

TQAYQDQKPGTSGLR [_TQAYQDQK(Crotonyl)PGTSGLR_]
collision cross section [9]: 430.35 ± 3.2 Å² | collision cross section (charge state: 3, modification: Crotonyl): 480.34 ± 2.8 Å²

LQLEIDQKK [_LQLEIDQK(Trimethyl (K))K_]
collision cross section [11]: 370.49 ± 1.6 Å² | collision cross section [12]: 433.51 ± 3.7 Å²

DKALPLEAEVAPVK [_DK(Crotonyl)ALPLEAEVAPVK_]
collision cross section [9]: 411.34 ± 0.34 Å²

GTISAPGKVVTAAAQAK [_GTISAPGK(Formyl)VVTAAAQAK_]
collision cross section [7]: 440.5 ± 0.16 Å² | collision cross section [8]: 511.74 ± 2.1 Å²

ITESVAETAQTIKK [_ITESVAETAQTIK(GlyGly (K))K_]
collision cross section [13]: 453.63 ± 0.95 Å² | collision cross section [14]: 514.8 ± 1.1 Å²

SPDEAYAIAKK [_SPDEAYAIAK(Dimethyl (K))K_]
collision cross section [15]: 376.23 ± 0.37 Å² | collision cross section [16]: 437.31 ± 0.63 Å²

LAEQEAHYAVR [_LAEQEAHY(Phospho (Y))AVR_]
collision cross section [17]: 408.57 ± 0.76 Å² | collision cross section (charge state: 3, modification: Phospho (Y)): 482.98 ± 0.1 Å²

TLQKQSVVYGGK [_TLQK(Acetyl (K))QSVVYGGK_]
collision cross section [3]: 392.07 ± 0.61 Å²

ASAISIKLGSSK [_ASAISIK(GlyGly (K))LGSSK_]
collision cross section [13]: 390.99 ± 1 Å²

DTGEKLTVAENEAETK [_DTGEK(Trimethyl (K))LTVAENEAETK_]
collision cross section [11]: 443.08 Å² | collision cross section [12]: 490.09 ± 1.8 Å²

TLQKQSVVYGGK [_TLQK(Formyl)QSVVYGGK_]
collision cross section [7]: 387.94 ± 1 Å²

ITASLCDLKSR [_ITASLCDLK(Succinyl)SR_]
collision cross section [18]: 384.23 ± 0.76 Å²

IEDEQALGSQLQK [_IEDEQALGS(HexNAc (ST))QLQK_]
collision cross section (charge state: 2, modification: HexNAc (ST)): 424.7 ± 0.62 Å² | collision cross section (charge state: 3, modification: HexNAc (ST)): 499.3 ± 0.96 Å²

VGIDTPDIDIHGPEGKLK [_VGIDTPDIDIHGPEGK(Malonyl)LK_]
collision cross section (charge state: 3, modification: Malonyl): 540.98 Å²

SLKLNTAEDAK [_SLK(hydroxyisobutyryl)LNTAEDAK_]
collision cross section [19]: 378.64 ± 0.28 Å²

PLPVALQTRLAK [_PLPVALQTR(Citrullination (R))LAK_]
collision cross section [20]: 391.36 ± 0.54 Å²

VEPGSLESSPGLGRGR [_VEPGSLESSPGLGR(Citrullination (R))GR_]
collision cross section [20]: 418.2 ± 0.21 Å² | collision cross section [21]: 495.92 ± 3.1 Å²

SGNLTEDDKHNNAK [_SGNLTEDDK(Acetyl (K))HNNAK_]
collision cross section [3]: 418.78 ± 2.4 Å² | collision cross section [10]: 469.35 ± 2.1 Å²

FSHSVQNSERGK [_FSHSVQNSER(Citrullination (R))GK_]
collision cross section [20]: 390.38 ± 0.44 Å² | collision cross section [21]: 441.33 ± 1.8 Å²

KYEEIDNAPEER [_K(Propionyl)YEEIDNAPEER_]
collision cross section [6]: 411.41 ± 0.64 Å² | collision cross section [22]: 491.8 Å²

LFVGGIKEDTEEHHLR [_LFVGGIK(Butyryl)EDTEEHHLR_]
collision cross section [4]: 500.41 ± 0.28 Å² | collision cross section [5]: 545.89 ± 1.3 Å²

AGQKLIDVNHYAK [_AGQK(Methyl (K))LIDVNHYAK_]
collision cross section [23]: 421.24 ± 1.5 Å² | collision cross section [24]: 475.12 ± 2.7 Å²

GAEKTEVAEPR [_GAEK(Formyl)TEVAEPR_]
collision cross section [7]: 371.26 ± 0.89 Å²

SDDESSQKDIK [_SDDESSQK(Succinyl)DIK_]
collision cross section [18]: 378.1 ± 1 Å²

DKALPLEAEVAPVK [_DK(Methyl (K))ALPLEAEVAPVK_]
collision cross section [23]: 408.8 ± 1.9 Å² | collision cross section [24]: 507.57 ± 2 Å²

LQDVSGQLSSSKK [_LQDVSGQLSSSK(Trimethyl (K))K_]
collision cross section [11]: 417.06 ± 1.1 Å² | collision cross section [12]: 475.09 ± 1.5 Å²

ITASLCDLKSR [_ITASLCDLK(GlyGly (K))SR_]
collision cross section [13]: 398.64 ± 0.87 Å² | collision cross section [14]: 457.36 ± 1.1 Å²

DLSTVEALQNLKNLK [_DLSTVEALQNLK(Succinyl)NLK_]
collision cross section [18]: 483.86 ± 0.78 Å² | collision cross section [25]: 537.21 Å²

LEQVEKELLR [_LEQVEK(hydroxyisobutyryl)ELLR_]
collision cross section [19]: 394.74 ± 0.29 Å²

PGGEGPQCEKTTDVK [_PGGEGPQCEK(GlyGly (K))TTDVK_]
collision cross section [13]: 422.06 ± 1.9 Å² | collision cross section [14]: 492.2 ± 3 Å²

DAEAAEATAEGALKAEK [_DAEAAEATAEGALK(hydroxyisobutyryl)AEK_]
collision cross section [19]: 435.11 ± 0.29 Å² | collision cross section [26]: 547.8 ± 2.1 Å²

DDSFLGKLGGTLAR [_DDSFLGK(hydroxyisobutyryl)LGGTLAR_]
collision cross section [19]: 418.74 ± 0.55 Å² | collision cross section [26]: 495.38 ± 2.8 Å²

AAQASDLEKIHLDEK [_AAQASDLEK(Trimethyl (K))IHLDEK_]
collision cross section [11]: 457.14 Å² | collision cross section [12]: 500.66 ± 1.6 Å²

DASTLQSQKAEGTGDAK [_DASTLQSQK(Succinyl)AEGTGDAK_]
collision cross section [18]: 437.2 ± 0.35 Å² | collision cross section [25]: 509.05 ± 1.6 Å²

SNEEGSEEKGPEVR [_SNEEGSEEK(Butyryl)GPEVR_]
collision cross section [4]: 407.11 ± 0.23 Å² | collision cross section [5]: 490.17 Å²

VNVEAPDVNLEGLGGKLK [_VNVEAPDVNLEGLGGK(Crotonyl)LK_]
collision cross section [9]: 459.79 Å²

SLFFGGKGAPLQR [_SLFFGGK(hydroxyisobutyryl)GAPLQR_]
collision cross section [19]: 408.12 ± 0.55 Å² | collision cross section [26]: 482.11 Å²

LQEKVESAQSEQK [_LQEK(Dimethyl (K))VESAQSEQK_]
collision cross section [15]: 412.95 ± 1.6 Å² | collision cross section [16]: 455.71 ± 2.1 Å²

ASNAAVKLAESK [_ASNAAVK(hydroxyisobutyryl)LAESK_]
collision cross section [19]: 376.83 ± 0.8 Å²

VGLQVVAVKAPGFGDNR [_VGLQVVAVK(Succinyl)APGFGDNR_]
collision cross section [18]: 449.31 ± 0.96 Å² | collision cross section [25]: 542.29 ± 1.1 Å²

LSSETYSQAK [_LSSETY(Phospho (Y))SQAK_]
collision cross section [17]: 357.2 ± 0.065 Å²

SSFAYKDQNENR [_SSFAYK(Propionyl)DQNENR_]
collision cross section [6]: 401.75 ± 0.65 Å² | collision cross section [22]: 462.04 Å²

GEQGEPGAPGIRTGIQGLK [_GEQGEPGAP(Hydroxyproline)GIRTGIQGLK_]
collision cross section (charge state: 2, modification: Hydroxyproline): 450.73 ± 0.4 Å² | collision cross section (charge state: 3, modification: Hydroxyproline): 502.77 ± 1.3 Å²

SKHLQEQLNELK [_SK(Formyl)HLQEQLNELK_]
collision cross section [7]: 412.77 ± 0.19 Å² | collision cross section [8]: 477.47 ± 2.1 Å²

TLDEILQEKK [_TLDEILQEK(Propionyl)K_]
collision cross section [6]: 380.38 Å²

IQNGAQGIRFIYTR [_IQNGAQGIR(Citrullination (R))FIYTR_]
collision cross section [21]: 506.23 Å²

IDLPAENSNSETIIITGKR [_IDLPAENSNSETIIITGK(Gluratylation)R_]
collision cross section [1]: 499.21 ± 1.9 Å²

GATVTRGVPPPPTVR [_GATVTR(Methyl (R))GVPPPPTVR_]
collision cross section (charge state: 3, modification: Methyl (R)): 512.38 ± 1.6 Å²

YADLTEDQLPSCESLK [_Y(Nitro (Y))ADLTEDQLPSCESLK_]
collision cross section [27]: 442.66 ± 0.55 Å²

VGVEVPDVNIEGPEGKLK [_VGVEVPDVNIEGPEGK(Acetyl (K))LK_]
collision cross section [3]: 456.04 ± 2.4 Å² | collision cross section [10]: 513.89 Å²

DTGEKLTVAENEAETK [_DTGEK(Dimethyl (K))LTVAENEAETK_]
collision cross section [15]: 442.93 ± 0.72 Å² | collision cross section [16]: 481.58 ± 2.1 Å²

SLFFGGKGAPLQR [_SLFFGGK(Gluratylation)GAPLQR_]
collision cross section [1]: 407.53 ± 0.99 Å² | collision cross section [2]: 479.63 ± 1.2 Å²

APEYLHR [_APEY(Nitro (Y))LHR_]
collision cross section [27]: 321.02 ± 1.2 Å²

LTEKELAEAASK [_LTEK(Acetyl (K))ELAEAASK_]
collision cross section [3]: 387.12 ± 0.45 Å²

LNAIYQNNLTK [_LNAIY(Nitro (Y))QNNLTK_]
collision cross section [27]: 384.56 ± 0.55 Å²

SLEEEGAAHSGKR [_SLEEEGAAHSGK(Succinyl)R_]
collision cross section [18]: 416.07 ± 1.8 Å² | collision cross section [25]: 470.94 ± 2.7 Å²

— the supplement of paper PMC10598134
